These results are taken from patent publication US20160096894 (published 2016).

Test [1] deals with T1, IGF-IR extracellular domain (human, UniProt P08069). Kind of test: SPR, protocol 1. A general note: Surface plasmon resonance follows binding to a sensor surface in real time, without labels.
The target of a further test is IGF-IR (human, UniProt P08069). Put plainly: competition, IGF-I blocking.
In test [2] the target is T1, IGF-IR extracellular domain. Kind of test: SPR.
Test [3] has the same target. Put plainly: SPR, protocol 2.

B1: 2.12.1 (antibody, V domains shown)
VH: GRLGQAWRSLRLSCAASGFTFSDYYMSWIRQAPGKGLEWVSYISSSGSTRDYADSVKGRFTISRDNAKNSLYLQMNSLRAEDTAVYYCVRDGVETTFYYYYYGMDVWGQGTTVTVSS
VL: ASVGDRVTFTCRASQDIRRDLGWYQQKPGKAPKRLIYAASRLQSGVPSRFSGSGSGTEFTLTISSLQPEDFATYYCLQHNNYPRTFGQGTEVEIIR
As a reminder, the Kd is the free concentration of one partner at which half of the binding sites on the other are occupied at equilibrium, for simple one-to-one binding. The low end stands for a tighter complex, the high end for a looser complex. In general, IC50 refers to the concentration at which inhibition is half-maximal. A lower IC50 goes with higher potency. B1 gave a dissociation constant Kd in test [1] of 7.37 nM. In the test with IGF-IR, this molecule displayed a concentration for half-maximal inhibition (IC50) of 0.45 µg/mL.

B2: 4.17.3 (antibody, V domains shown)
VH: PGLVKPSETLSLTCTVSGGSISSYYWSWIRQPPGKGLEWIGYIYYSGSTNYNPSLKSRVTISVDTSKNQFSLKLSSVTAADTAVYYCARTYSSSFYYYGMDVWGQGTTVTVSS
VL: GDRVTITCRASQSISTFLNWYQQKPGKAPKLLIHVASSLQGGVPSRFSGSGSGTDFTLTISSLQPEDFATYYCQQSYNAPLTFGGGTKVEIK
For B2, the Kd in test [2] was determined as 13 nM.

B3: 2.13.2 (antibody, V domains shown)
VH: VQLLESGGGLVQPGGSLRLSCTASGFTFSSYAMNWVRQAPGKGLEWVSAISGSGGTTFYADSVKGRFTISRDNSRTTLYLQMNSLRAEDTAVYYCAKDLGWSDSYYYYYGMDVWGQGTTVTVSS
VL: DIQMTQFPSSLSASVGDRVTITCRASQGIRNDLGWYQQKPGKAPKRLIYAASRLHRGVPSRFSGSGSGTEFTLTISSLQPEDFATYYCLQHNSYPCSFGQGTKLEIK
In the case of B3, the Kd in test [1] turned out to be 3.5 nM; in test [3] it was 1.53 nM. The IC50 in the test with IGF-IR is 0.18 µg/mL.

B4: 4.9.2 (antibody, V domains shown)
VH: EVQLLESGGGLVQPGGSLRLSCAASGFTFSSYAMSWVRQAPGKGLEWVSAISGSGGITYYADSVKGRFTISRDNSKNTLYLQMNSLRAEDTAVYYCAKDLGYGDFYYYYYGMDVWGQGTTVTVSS
VL: DIQMTQSPSSLSASVGDRVTITCRASQGIRSDLGWFQQKPGKAPKRLIYAASKLHRGVPSRFSGSGSGTEFTLTISRLQPEDFATYYCLQHNSYPLTFGGGTKVEIK
B4: the figures for the Kd in test [1] and in test [3] were 0.684 nM and 0.427 nM, respectively. The molecule also registered an IC50 in the test with IGF-IR of 0.1 µg/mL.

B5: 6.1.1 (antibody, V domains shown)
VH: EVQLLESGGGLVQPGGSLRLSCAASGFTFSSYAMSWVRQAPGKGLEWVSGITGSGGSTYYADSVKGRFTISRDNSKNTLYLQMNSLRAEDTAVYYCAKDPGTTVIMSWFDPWGQGTLVTVSS
VL: RATLSCRASQSVRGRYLAWYQQKPGQAPRLLIYGASSRATGIPDRFSGSGSGTDFTLTISRLEPEDFAVFYCQQYGSSPRTFGQGTKVEIK
B5 came in with a Kd in test [2] of 0.565 nM.

B6: 2.14.3 (antibody, V domains shown)
VH: GPGLVKPSETLSLTCTVSGGSISNYYWSWIRQPAGKGLEWIGRIYTSGSPNYNPSLKSRVTMSVDTSKNQFSLKLNSVTAADTAVYYCAVTIFGVVIIFDYWGQGTLVTVSS
VL: SSLSASVGDRVTFTCRASQDIRRDLGWYQQKPGKAPKRLIYAASRLQSGVPSRFSGSGSGTEFTLTISSLQPEDFATYYCLQHNNYPRTFGQGTEVEIIR
On to B6, for which the equilibrium dissociation constant (Kd) in test [2] was found to be 0.641 nM.
